Legend:
[1] = target: T1, human SIRPγ-His monomer protein (human, UniProt Q9P1W8 29-360); assay: BLI Octet, antibody on AHC, SIRP-His monomer, 1:1 model
T1 construct: also called hSIRPγ
Procedure: (§1) Select antibodies from Example 1 of the disclosure were tested for their affinities to human SIRPγ, cynomolgus monkey SIRPγ, human SIRPαV1, human SIRPαV2, and human SIRPβ1 using a biolayer interferometry (BLI) Octet system (Pall ForteBio). Each antibody was immobilized on a biosensor tip by an anti-human IgG capture (AHC). […] The biosensors were then exposed to wash buffer to measure off-rate kinetics. The resulting kinetic data were analyzed and fitted using a 1:1 binding model.

[2] = target: T2, cynomolgus monkey SIRPγ-His monomer protein (cynomolgus monkey, UniProt Q9P1W8 29-359 (human entry), limits assumed); assay: as above
T2 construct: also called Cyno SIRPγ; Cyno SIRPγ-His
T2 chain: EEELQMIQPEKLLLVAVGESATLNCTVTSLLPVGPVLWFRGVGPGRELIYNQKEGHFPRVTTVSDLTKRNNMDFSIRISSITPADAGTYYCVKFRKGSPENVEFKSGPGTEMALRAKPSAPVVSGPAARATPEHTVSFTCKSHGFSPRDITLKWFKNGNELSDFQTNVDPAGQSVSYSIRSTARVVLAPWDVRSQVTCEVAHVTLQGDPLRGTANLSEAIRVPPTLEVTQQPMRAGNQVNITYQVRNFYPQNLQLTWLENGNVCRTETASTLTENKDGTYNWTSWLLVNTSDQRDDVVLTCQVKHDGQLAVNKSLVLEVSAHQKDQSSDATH
Procedure: as §1

[3] = target: T3, Human SIRPαV2 (plate-coated extracellular domain) (Homo sapiens, UniProt P78324); assay: ELISA, coated SIRP ECD (2 µg/mL), anti-human IgG, luminescence
T3 construct: extracellular domain
Summary of the method: (§2)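 Plate-coated SIRP extracellular domain (2 μg/mL), blocked, then exposed to purified antibodies in titration, after transient expression in Expi293F cells for 5 days and Protein A purification. Bound antibody is detected with anti-human IgG and a chemiluminescent substrate, and reported as relative luminescence units.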

[4] = target: T4, extracellular binding domain of human SIRPγ (plate-coated) (human, UniProt Q9P1W8 29-360); assay: as above
T4 construct: also called hSIRPγ
Summary of the method: as §2

[5] = target: T5, human SIRPβ1-His monomer protein (human, UniProt O00241 30-371, limits assumed); assay: BLI
Procedure: as §1

[6] = target: T6, human SIRPα V2-His monomer protein (human, UniProt P78324 31-370, limits assumed); assay: BLI
T6 construct: the V2 allele differs from the canonical UniProt P78324 entry
Procedure: as §1

[7] = target: T7, human SIRPγ on primary human T-cells (human, UniProt Q9P1W8 29-387); assay: flow cytometry, dye-conjugated antibody, human whole blood (3 donors)
T7 construct: endogenous SIRPγ of donor T-cells; also called SIRPγ on T-cells
Procedure: Selected antibodies and an isotype control were tested for binding to human T-cells, B-cells, NK cells, monocytes, and granulocytes. […] Up to 50 μg/mL fluorescent dye-conjugated antibodies or isotype controls were incubated with whole blood from three normal donors. T-cells were identified as the CD14−, CD20−, SSClow, and CD3+ population or further identified to be CD4+ or CD8+ populations. B-cells were identified as the CD14−, SSClow, and CD20+ population. NK cells were identified as CD14−, CD20−, CD3−, and CD56+. Monocytes were identified as the SSClow and CD14+ population. Granulocytes were identified as the CD14−, CD20−, CD3−, SSChigh population. Graphs depict the median fluorescence intensity (MFI) of each population.

[8] = target: T8, human SIRPβ1 on CHO cells (co-transfected with DAP12) (human, UniProt O00241 30-398); assay: flow cytometry
T8 construct: whole, on cells; co-transfected with DAP12; also called Human SIRPβ1 CHO

[9] = target: T1, human SIRPγ-His monomer protein; assay: BLI Octet, V5-scFv PPE captured, SIRP-His 500 nM
[10] = target: T9, cynomolgus monkey SIRPγ on CHO cells (cynomolgus monkey, UniProt Q9P1W8 29-386 (human entry)); assay: flow cytometry, myc-scFv PPE
T9 construct: also called Cyno SIRPγ CHO
T9 chain: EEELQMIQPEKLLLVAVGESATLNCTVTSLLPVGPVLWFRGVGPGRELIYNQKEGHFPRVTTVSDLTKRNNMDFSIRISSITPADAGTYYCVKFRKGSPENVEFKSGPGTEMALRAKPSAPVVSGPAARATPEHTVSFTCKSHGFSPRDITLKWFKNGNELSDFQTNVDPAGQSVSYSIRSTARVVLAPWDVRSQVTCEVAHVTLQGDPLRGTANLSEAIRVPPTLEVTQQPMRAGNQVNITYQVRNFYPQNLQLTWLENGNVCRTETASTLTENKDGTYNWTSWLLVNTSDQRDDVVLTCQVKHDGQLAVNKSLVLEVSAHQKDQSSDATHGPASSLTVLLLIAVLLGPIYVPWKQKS
Summary of the method: (§3)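 Read-out is median fluorescence intensity for each antibody concentration, measured after a titration series is bound to stably transfected CHO cells and stained with labelled anti-human IgG. The scFv data come from myc-tagged crude PPE, also run on parental CHO-K1, where fold change below 2.0 denotes no binding.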

[11] = target: T10, cynomolgus monkey SIRPα on CHO cells (cynomolgus monkey, UniProt A0A2K5VYQ9 31-507); assay: flow cytometry, myc-scFv PPE
T10 construct: whole, on cells; also called Cyno SIRPα CHO
T10 sequence: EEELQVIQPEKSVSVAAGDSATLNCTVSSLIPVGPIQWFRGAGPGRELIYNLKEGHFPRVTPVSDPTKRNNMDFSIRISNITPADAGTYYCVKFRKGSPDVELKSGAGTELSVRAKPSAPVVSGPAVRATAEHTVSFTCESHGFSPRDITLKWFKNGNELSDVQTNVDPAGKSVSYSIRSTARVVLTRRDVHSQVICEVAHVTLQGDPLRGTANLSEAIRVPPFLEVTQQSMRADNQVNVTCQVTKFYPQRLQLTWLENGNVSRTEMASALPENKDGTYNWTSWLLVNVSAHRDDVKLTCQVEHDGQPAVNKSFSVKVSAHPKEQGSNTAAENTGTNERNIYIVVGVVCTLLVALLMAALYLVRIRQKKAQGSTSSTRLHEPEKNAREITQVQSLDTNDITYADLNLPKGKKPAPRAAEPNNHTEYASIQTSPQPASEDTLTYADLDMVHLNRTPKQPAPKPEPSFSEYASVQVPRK
Summary of the method: as §3

[12] = target: T11, human SIRPγ on stably transfected CHO cells (human, UniProt Q9P1W8 29-387); assay: flow cytometry, myc-scFv PPE
T11 construct: also called Human SIRPγ CHO
Summary of the method: as §3

[13] = target: T5, human SIRPβ1-His monomer protein; assay: BLI Octet, V5-scFv PPE captured, SIRP-His 500 nM
[14] = target: T2, cynomolgus monkey SIRPγ-His monomer …; assay: BLI Octet, captured scFv PPE, cyno SIRP
Summary of the method: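 Bio-layer interferometry used biotinylated anti-V5 on streptavidin sensors to capture V5-tagged scFv from crude periplasmic extract. Monomeric His-tagged SIRP protein at 500 nM was associated, then dissociated in wash buffer. Off-rate (kdis) was analyzed from the kinetic traces.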

[15] = target: T10, cynomolgus monkey SIRPα on CHO cells; assay: flow cytometry
[16] = target: T6, human SIRPα V2-His monomer protein; assay: BLI Octet, V5-scFv PPE captured, SIRP-His 500 nM

T3 sequence (P78324 other isoform, or with tags, fused parts or gaps limits assumed): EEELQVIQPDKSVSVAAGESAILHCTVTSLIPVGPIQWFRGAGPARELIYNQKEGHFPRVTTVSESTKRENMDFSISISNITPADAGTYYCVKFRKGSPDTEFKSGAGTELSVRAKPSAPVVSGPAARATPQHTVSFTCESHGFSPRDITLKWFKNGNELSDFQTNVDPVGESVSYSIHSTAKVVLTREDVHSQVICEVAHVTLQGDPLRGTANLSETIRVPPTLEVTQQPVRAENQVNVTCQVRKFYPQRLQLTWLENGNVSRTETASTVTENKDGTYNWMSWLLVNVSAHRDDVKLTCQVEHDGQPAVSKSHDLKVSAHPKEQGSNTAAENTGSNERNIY
T11 sequence (Q9P1W8 29-387 limits assumed): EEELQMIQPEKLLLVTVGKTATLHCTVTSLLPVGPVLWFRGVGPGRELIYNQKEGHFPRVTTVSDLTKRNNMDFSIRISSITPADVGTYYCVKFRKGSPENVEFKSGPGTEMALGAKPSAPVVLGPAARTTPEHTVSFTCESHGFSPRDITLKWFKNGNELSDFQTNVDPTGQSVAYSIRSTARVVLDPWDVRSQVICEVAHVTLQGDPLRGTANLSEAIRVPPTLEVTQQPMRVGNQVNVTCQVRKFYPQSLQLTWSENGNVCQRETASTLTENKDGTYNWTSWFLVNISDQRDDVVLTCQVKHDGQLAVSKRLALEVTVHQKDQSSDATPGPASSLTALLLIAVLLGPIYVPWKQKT
T5 sequence (O00241 30-371 limits assumed): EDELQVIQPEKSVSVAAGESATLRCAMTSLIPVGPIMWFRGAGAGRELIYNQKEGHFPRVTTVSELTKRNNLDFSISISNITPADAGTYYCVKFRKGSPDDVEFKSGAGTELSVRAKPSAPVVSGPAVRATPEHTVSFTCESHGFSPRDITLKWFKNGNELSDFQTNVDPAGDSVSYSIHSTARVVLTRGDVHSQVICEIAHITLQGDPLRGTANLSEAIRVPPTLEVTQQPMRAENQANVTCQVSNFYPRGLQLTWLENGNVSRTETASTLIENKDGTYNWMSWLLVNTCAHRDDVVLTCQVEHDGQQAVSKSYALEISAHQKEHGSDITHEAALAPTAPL
T4 sequence (Q9P1W8 29-360 limits assumed): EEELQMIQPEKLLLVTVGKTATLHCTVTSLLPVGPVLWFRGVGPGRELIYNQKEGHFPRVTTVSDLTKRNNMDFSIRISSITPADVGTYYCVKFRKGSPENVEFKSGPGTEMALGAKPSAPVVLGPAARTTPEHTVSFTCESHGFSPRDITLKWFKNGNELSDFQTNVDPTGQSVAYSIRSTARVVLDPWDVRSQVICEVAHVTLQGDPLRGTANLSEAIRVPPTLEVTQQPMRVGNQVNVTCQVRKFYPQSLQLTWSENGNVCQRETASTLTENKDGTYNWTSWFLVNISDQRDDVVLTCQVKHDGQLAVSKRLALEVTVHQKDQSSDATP
T1 sequence (Q9P1W8 29-360 limits assumed): as above
T6 sequence (P78324 other isoform, or with tags, fused parts or gaps limits assumed): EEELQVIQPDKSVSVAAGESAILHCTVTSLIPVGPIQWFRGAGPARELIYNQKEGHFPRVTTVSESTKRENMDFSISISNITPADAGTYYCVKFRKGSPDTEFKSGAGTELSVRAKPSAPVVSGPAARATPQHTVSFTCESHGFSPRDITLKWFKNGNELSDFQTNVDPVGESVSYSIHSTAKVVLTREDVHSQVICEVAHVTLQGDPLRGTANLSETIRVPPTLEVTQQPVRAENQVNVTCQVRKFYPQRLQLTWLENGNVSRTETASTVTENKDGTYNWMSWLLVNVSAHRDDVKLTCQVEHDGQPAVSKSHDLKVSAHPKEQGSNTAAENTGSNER
T8 sequence (O00241 30-398): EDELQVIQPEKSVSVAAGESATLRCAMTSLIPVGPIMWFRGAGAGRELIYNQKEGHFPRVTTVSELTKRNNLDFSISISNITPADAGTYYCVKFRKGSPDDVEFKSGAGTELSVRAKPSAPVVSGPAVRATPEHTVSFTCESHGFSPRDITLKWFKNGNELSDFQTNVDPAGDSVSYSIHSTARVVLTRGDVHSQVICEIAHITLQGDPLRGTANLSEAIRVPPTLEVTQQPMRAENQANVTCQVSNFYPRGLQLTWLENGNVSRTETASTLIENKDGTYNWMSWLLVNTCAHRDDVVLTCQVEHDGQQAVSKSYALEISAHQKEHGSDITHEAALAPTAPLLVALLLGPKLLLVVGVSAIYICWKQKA
T7 sequence (Q9P1W8 29-387 limits assumed): as the sequence (Q9P1W8 29-387 limits assumed) above

B1: Antibody 7 (antibody, V domains shown)
VH: QVQLVESGGGVVQPGRSLRLSCAASGFTFSNYGMHWVRQAPGKGLEWVAFIWYDGSNKNYADSVKGRFTISRDNPTNTLYLQMNSLRAEDTAVYYCAREEQWLDYWGQGTLVTVSS
VL: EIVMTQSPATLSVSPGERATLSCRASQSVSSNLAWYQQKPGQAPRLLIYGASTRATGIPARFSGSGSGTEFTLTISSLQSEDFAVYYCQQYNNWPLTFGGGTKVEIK
Question: With B1 as the binder, how does the Kd [1] read?
Answer: Its Kd is 296 nM.

Question: And the Kd [2]?
Answer: Its Kd is 2200 nM.

Question: Does B1 bind [3]?
Answer: Result: no binding (tested: about 40 µg/mL)

Question: And the “EC50 (read off the curve)” value [4]?
Answer: Its value is ~0.3 µg/mL.

Question: Does B1 bind [5]?
Answer: Result: no binding (tested: 300 nM)

Question: Does B1 bind [6]?
Answer: Result: no binding (tested: 300 nM)

B2: Antibody 8 (antibody, V domains shown)
VH: QVQLVQSGAEVKKPGASVKVSCKASGYTFTGYHIHWVRQAPGQGLEWMGWINPNSGGTNYAQKFQGRVTMTRDTSINTAYMELNRLRSDDTAVFYCARERVGYCSRPSCLDDLNIWGQGTMVTVSS
VL: DIQMTQSPSTLSASVGDRVTITCRASQSISSWLAWYQQKPGKAPKLLIYKASSLETGVPSRFSGSGSGTEFTLTISSLQPDDFATYYCQQYDSYYTFGQGTKLEIK
Question: For B2, which Kd [1] is on record?
Answer: Its Kd is 2.07 nM.

Question: What about the Kd [2] of the same binder?
Answer: The Kd was 8.01 nM.

Question: What about the “EC50 (read off the curve)” value [4] of the same binder?
Answer: Its value is ~0.04 µg/mL.

Question: And the “EC50 (read off the curve)” value [7]?
Answer: The value was ~0.1 µg/mL.

Question: Does B2 bind [5]?
Answer: Result: no binding (tested: 300 nM)

B3: Antibody 3 (antibody, V domains shown)
VH: QVQLVESGGGVVQPGRSLRLSCAASGFTFSNYGMHWVRQAPGKGLEWVAFIWYDGSNKNYADSVKGRFTISRDNPTNTLYLQMNSLRAEDTAVYYCAREEQWLDYWGQGTLVTVSS
VL: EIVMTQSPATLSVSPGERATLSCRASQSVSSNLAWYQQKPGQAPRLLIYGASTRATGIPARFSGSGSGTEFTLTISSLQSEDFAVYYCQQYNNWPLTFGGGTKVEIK
Question: Does B3 bind [3]?
Answer: Result: no binding (tested: about 40 µg/mL)

Question: And the “EC50 (read off the curve)” value [4]?
Answer: The value was ~0.1 µg/mL.

B4: Antibody 4 (antibody, V domains shown)
VH: QVQLVESGGGVVQPGRSLRLSCAASGFTFSNYGMHWVRQAPGKGLEWVAFIWYDGSNKNYADSVKGRFTISRDNPTNTLYLQMNSLRAEDTAVYYCAREEQWLDYWGQGTLVTVSS
VL: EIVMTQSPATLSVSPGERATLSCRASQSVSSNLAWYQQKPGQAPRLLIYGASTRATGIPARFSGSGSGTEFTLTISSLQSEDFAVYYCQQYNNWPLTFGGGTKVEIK
Question: Does B4 bind [3]?
Answer: Result: no binding (tested: about 40 µg/mL)

Question: What about the “EC50 (read off the curve)” value [4] of the same binder?
Answer: Its value is ~0.1 µg/mL.

B5: Antibody 19 (scFv, V domains shown)
VH: QVQLVQSGAEVKKPGASVKVSCKASGYTFTAYYMHWVRQAPGQGLEWMGIINPSGGSTSYAQKFQGRVTMTRDTSTSTVYMELSSLRSEDTAVYYCARDSGWYAPGYYYGMDVWGQGTTVTVSS
VL: DIQMTQSPSSLSASVGDRVTITCRASESISHWLAWYQQKPGKAPKLLIYGASTLQSGVPSRFSGSGSGTDFTLTISSLQPEDFATYYCQQSYTPPLTFGGGTKVEIK
notes: scFv in crude PPE, V5/myc-tagged
Question: Does B5 bind [8]?
Answer: Result: no binding (tested: fold change <2.0)

Question: What about the kdis [9] of the same binder?
Answer: Its kdis is < 0.001 s⁻¹.

Question: And the “MFI fold change over parental CHO” value [10]?
Answer: The value was 36.6 fold.

Question: And the “MFI fold change over parental CHO” value [11]?
Answer: The value was 2.01 fold.

Question: What about the “MFI fold change over parental CHO” value [12] of the same binder?
Answer: Its value is 43.3 fold.

B6: Antibody 22 (scFv, V domains shown)
VH: QVQLVQSGAEVKKPGASVKVSCKASGYTFTSHDINWVRQAPGQGLEWMGISNPSGGSTYYAQKFQGRVTMTRDTSTSTVYMELSSLRSEDTAVYYCASSRRYWNGAFDYWGQGTLVTVSS
VL: not shown
notes: as for B5
Question: What does the source list for B6?
Answer: kdis [9]: < 0.001 s⁻¹; kdis [13]: < 0.001 s⁻¹; MFI fold change over parental CHO [10]: 8.24 fold; MFI fold change over parental CHO [12]: 3.17 fold; binding result [14]: binds

B7: Antibody 28 (scFv, V domains shown)
VH: QVQLVQSGAEVKKPGASVKVSCKASGYTFTSYNIHWVRQAPGQGLEWMGWISAYNGNTNYAQKLQGRVTMTRDTSTSTVYMELSSLRSEDTAVYYCALDGGQLGVAFDIWGQGTMVTVSS
VL: DIQMTQSPSSLSASVGDRVTITCRASQGISNWLAWYQQKPGKAPKLLIYDASNLDAGVPSRFSGSGSGTDFTLTISSLQPEDFATYYCQQANSLPLTFGGGTKVEIK
notes: as for B5
Question: What does the source list for B7?
Answer: binding result [15]: no binding (tested: fold change <2.0); kdis [9]: 0.001 to 0.01 s⁻¹; kdis [13]: < 0.001 s⁻¹; kdis [16]: 0.001 to 0.01 s⁻¹; MFI fold change over parental CHO [10]: 24 fold; MFI fold change over parental CHO [12]: 46.5 fold; binding result [14]: binds

— US20240400677A1 (ELECTRA THERAPEUTICS, published 2024)
